Assay results published in patent US20260217863.
Positions count from the first letter of the chain named.

Experiments:
[1] = target: T1, Fv-1, expressed soluble Fv antibody of clone 5 (His-tag-TdTomato-VH)
T1 chain: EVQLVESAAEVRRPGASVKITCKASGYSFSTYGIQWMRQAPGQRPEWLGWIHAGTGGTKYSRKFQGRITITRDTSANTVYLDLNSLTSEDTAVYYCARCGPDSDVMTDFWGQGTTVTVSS

[2] = target: T2, Fv-2, expressed soluble Fv antibody of clone 23 (His-tag-TdTomato-VH)
T2 chain: T1 chain with C99Y, D102V, S103G, D104R, M106K, T107R, F109D

[3] = target: Fv-3, expressed soluble Fv antibody of clone 39 (His-tag-TdTomato-VH)

B1: Ribonuclease A (Type II-A) from bovine pancreas (protein)
chain: KETAAAKFERQHMDSSTSAASSSNYCNQMMKSRNLTKDRCKPVNTFVHESLADVQAVCSQKNVACKNGQTNCYQSYSTMSITDCRETGSSKYPNCAYKTTQANKHIIVACEGNPYVPVHFDASV
In the case of B1, the “cleavage of HeLa total RNA by RNase A (0.7 µg/ml), agarose gel, Fv antibody at 10 µM” value (from here on “cleavage of HeLa total RNA”) [1] is reported as “it was observed that the cleavage reaction of RNase A was completely inhibited”, the “stated: RNase A removed from the solution by Fv-1-beads (RNA cleavage read on an agarose gel)” value [1] is reported as “After Fv-Bead treatment: all four lanes (+ to ++++, + : 250 ng Fv-1-bead, RNase A 10 ng) keep faint RNA in the dashed box at about 1000-1500 bp like lane 0, marked 'RNA cleavage inhibition'. Before treatment (no bead) the four RNase A lanes show only a smear near 250 bp” and the “cleavage of HeLa total RNA” value [2] is reported as “it was observed that the cleavage reaction of RNase A was completely inhibited”. For the same protein, the “stated: RNase A removed from the solution by Fv-2-beads (RNA cleavage read on an agarose gel)” value [2] was “After Fv-Bead treatment: all four lanes (+ to ++++, + : 250 ng Fv-2-bead, RNase A 10 ng) keep both RNA bands (in the dashed box at about 1000-1500 bp and near 600 bp) like lane 0, marked 'RNA cleavage inhibition'. Before treatment (no bead) the four RNase A lanes have no band in the box” and the “cleavage of HeLa total RNA” value [3] was “it was observed that the cleavage reaction of RNase A was completely inhibited”.
